B1: jΔR3 peptide (C-terminal half of jR2R3, tau 300-313) (peptide)
peptide: VPGGGSVQIVYKPV
B2: jR2R3 peptide (tau residues 295-313) (peptide)
peptide: DNIKHVPGGGSVQIVYKPV
B3: jΔR3-P301L peptide (tau 300-313 with P301L) (peptide)
peptide: VLGGGSVQIVYKPV

This series deals with the molecule itself. Kind of series: ThT fluorescence + negative stain TEM.
Regarding B1, the binding result is “binds”.

For the protein B2, the binding result is listed as “binds”.

In the case of B3, the binding result was “binds”.

These data come from paper doi:10.1101/2023.11.28.568818 (bioRxiv, 2023).
